From paper PMC5835670

Target: SbSTOP1d-NT (N-terminal fragment of SbSTOP1d, 1-275 aa, truncated before the zinc finger domain) fused to the GAL4 DNA-binding domain (Sorghum bicolor (sweet sorghum))
Assay: two-hybrid; β-galactosidase assay in yeast strain Y190 with CPRG as substrate, Miller units; BD-SbSTOP1d-NT bait, AD fusion prey

Substance | β-galactosidase activity, fold of the control (times that of the control)
SbSTOP1d fused to the GAL4 activation domain (natural protein) | 450
SbSTOP1b fused to the GAL4 activation domain (natural protein) | 80
